These results are taken from patent US8673850B2, “PCSK9 inhibitors and methods of use thereof” (Institut de Recherches Cliniques de Montreal, priority 2008, dated 2014).

The chains are these.
B1: 80KKELA>GKPLD: AnxA2 with 80KKELA84 replaced by AnxA1 loop sequence 89GKPLD93 (protein, UniProt P07355 2-339, looked up, variant K80G E82P A84D)
Annexin A2: STVHEILCKLSLEGDHSTPPSAYGSVKAYTNFDAERDALNIETAIKTKGVDEVTIVNILTNRSNAQRQDIAFAYQRRTGKPLDSALKSALSGHLETVILGLLKTPAQYDASELKASMKGLGTDEDSLIEIICSRTNQELQEINRVYKEMYKTDLEKDIISDTSGDFRKLMVALAKGRRAEDGSVIDYELIDQDARDLYDAGVKRKGTDVPKWISIMTERSVPHLQKVFDRYKSYSPYDMLESIRKEVKGDLENAFLNLVQCIQNKPLYFADRLYDSMKGKGTRDKVLIRIMVSRSEVDMLKIRSEFKRKYGKSLYYYIQQDTKGDYQKALLYLCGGDD
B2: K28S+D34N+E36S: AnxA2 with Lys28, Asp34, Glu36 replaced by AnxA1 Ser, Asn, Ser (protein)
chain: MSTVHEILCKLSLEGDHSTPPSAYGSVSAYTNFNASRDALNIETAIKTKGVDEVTIVNILTNRSNAQRQDIAFAYQRRTKKELASALKSALSGHLETVILGLLKTPAQYDASELKASMKGLGTDEDSLIEIICSRTNQELQEINRVYKEMYKTDLEKDIISDTSGDFRKLMVALAKGRRAEDGSVIDYELIDQDARDLYDAGVKRKGTDVPKWISIMTERSVPHLQKVFDRYKSYSPYDMLESIRKEVKGDLENAFLNLVQCIQNKPLYFADRLYDSMKGKGTRDKVLIRIMVSRSEVDMLKIRSEFKRKYGKSLYYYIQQDTKGDYQKALLYLCGGDD
B3: R37S+E43H+K47M: AnxA2 with Arg37, Glu43, Lys47 replaced by AnxA1 Ser, His, Met (protein)
chain: MSTVHEILCKLSLEGDHSTPPSAYGSVKAYTNFDAESDALNIHTAIMTKGVDEVTIVNILTNRSNAQRQDIAFAYQRRTKKELASALKSALSGHLETVILGLLKTPAQYDASELKASMKGLGTDEDSLIEIICSRTNQELQEINRVYKEMYKTDLEKDIISDTSGDFRKLMVALAKGRRAEDGSVIDYELIDQDARDLYDAGVKRKGTDVPKWISIMTERSVPHLQKVFDRYKSYSPYDMLESIRKEVKGDLENAFLNLVQCIQNKPLYFADRLYDSMKGKGTRDKVLIRIMVSRSEVDMLKIRSEFKRKYGKSLYYYIQQDTKGDYQKALLYLCGGDD
B4: ^77AATAK^81: AnxA2 point mutant 77RRTKK81 to AATAK (protein)
chain: MSTVHEILCKLSLEGDHSTPPSAYGSVKAYTNFDAERDALNIETAIKTKGVDEVTIVNILTNRSNAQRQDIAFAYQAATAKELASALKSALSGHLETVILGLLKTPAQYDASELKASMKGLGTDEDSLIEIICSRTNQELQEINRVYKEMYKTDLEKDIISDTSGDFRKLMVALAKGRRAEDGSVIDYELIDQDARDLYDAGVKRKGTDVPKWISIMTERSVPHLQKVFDRYKSYSPYDMLESIRKEVKGDLENAFLNLVQCIQNKPLYFADRLYDSMKGKGTRDKVLIRIMVSRSEVDMLKIRSEFKRKYGKSLYYYIQQDTKGDYQKALLYLCGGDDYPYDVPDYA
B5: 77AATAA81: AnxA2 point mutant 77RRTKK81 to AATAA (protein)
chain: MSTVHEILCKLSLEGDHSTPPSAYGSVKAYTNFDAERDALNIETAIKTKGVDEVTIVNILTNRSNAQRQDIAFAYQAATAAELASALKSALSGHLETVILGLLKTPAQYDASELKASMKGLGTDEDSLIEIICSRTNQELQEINRVYKEMYKTDLEKDIISDTSGDFRKLMVALAKGRRAEDGSVIDYELIDQDARDLYDAGVKRKGTDVPKWISIMTERSVPHLQKVFDRYKSYSPYDMLESIRKEVKGDLENAFLNLVQCIQNKPLYFADRLYDSMKGKGTRDKVLIRIMVSRSEVDMLKIRSEFKRKYGKSLYYYIQQDTKGDYQKALLYLCGGDDYPYDVPDYA
B6: 77AATAAELASALA88: AnxA2 point mutant 77…88 to AATAAELASALA (protein)
chain: MSTVHEILCKLSLEGDHSTPPSAYGSVKAYTNFDAERDALNIETAIKTKGVDEVTIVNILTNRSNAQRQDIAFAYQAATAAELASALASALSGHLETVILGLLKTPAQYDASELKASMKGLGTDEDSLIEIICSRTNQELQEINRVYKEMYKTDLEKDIISDTSGDFRKLMVALAKGRRAEDGSVIDYELIDQDARDLYDAGVKRKGTDVPKWISIMTERSVPHLQKVFDRYKSYSPYDMLESIRKEVKGDLENAFLNLVQCIQNKPLYFADRLYDSMKGKGTRDKVLIRIMVSRSEVDMLKIRSEFKRKYGKSLYYYIQQDTKGDYQKALLYLCGGDDYPYDVPDYA
notes: AnxA2 point mutant 77…88 to …
B7: Δ25-36: AnxA2 deletion of aa 25-36 (protein)
chain: MSTVHEILCKLSLEGDHSTPPSAYRDALNIETAIKTKGVDEVTIVNILTNRSNAQRQDIAFAYQRRTKKELASALKSALSGHLETVILGLLKTPAQYDASELKASMKGLGTDEDSLIEIICSRTNQELQEINRVYKEMYKTDLEKDIISDTSGDFRKLMVALAKGRRAEDGSVIDYELIDQDARDLYDAGVKRKGTDVPKWISIMTERSVPHLQKVFDRYKSYSPYDMLESIRKEVKGDLENAFLNLVQCIQNKPLYFADRLYDSMKGKGTRDKVLIRIMVSRSEVDMLKIRSEFKRKYGKSLYYYIQQDTKGDYQKALLYLCGGDDYPYDVPDYA
B8: SW49-75: AnxA2 segment aa 49-75 swapped with AnxA1 aa 58-84 (protein)
chain: MSTVHEILCKLSLEGDHSTPPSAYGSVKAYTNFDAERDALNIETAIKTKGVDEATIIDILTKRNNAQRQQIKAAYQRRTKKELASALKSALSGHLETVILGLLKTPAQYDASELKASMKGLGTDEDSLIEIICSRTNQELQEINRVYKEMYKTDLEKDIISDTSGDFRKLMVALAKGRRAEDGSVIDYELIDQDARDLYDAGVKRKGTDVPKWISIMTERSVPHLQKVFDRYKSYSPYDMLESIRKEVKGDLENAFLNLVQCIQNKPLYFADRLYDSMKGKGTRDKVLIRIMVSRSEVDMLKIRSEFKRKYGKSLYYYIQQDTKGDYQKALLYLCGGDDYPYDVPDYA
B9: Δ102-108: AnxA2 deletion of aa 102-108 (protein)
chain: MSTVHEILCKLSLEGDHSTPPSAYGSVKAYTNFDAERDALNIETAIKTKGVDEVTIVNILTNRSNAQRQDIAFAYQRRTKKELASALKSALSGHLETVILGYDASELKASMKGLGTDEDSLIEIICSRTNQELQEINRVYKEMYKTDLEKDIISDTSGDFRKLMVALAKGRRAEDGSVIDYELIDQDARDLYDAGVKRKGTDVPKWISIMTERSVPHLQKVFDRYKSYSPYDMLESIRKEVKGDLENAFLNLVQCIQNKPLYFADRLYDSMKGKGTRDKVLIRIMVSRSEVDMLKIRSEFKRKYGKSLYYYIQQDTKGDYQKALLYLCGGDDYPYDVPDYA

Sequence of PCSK9-V5 (Q8NBP7 153-692): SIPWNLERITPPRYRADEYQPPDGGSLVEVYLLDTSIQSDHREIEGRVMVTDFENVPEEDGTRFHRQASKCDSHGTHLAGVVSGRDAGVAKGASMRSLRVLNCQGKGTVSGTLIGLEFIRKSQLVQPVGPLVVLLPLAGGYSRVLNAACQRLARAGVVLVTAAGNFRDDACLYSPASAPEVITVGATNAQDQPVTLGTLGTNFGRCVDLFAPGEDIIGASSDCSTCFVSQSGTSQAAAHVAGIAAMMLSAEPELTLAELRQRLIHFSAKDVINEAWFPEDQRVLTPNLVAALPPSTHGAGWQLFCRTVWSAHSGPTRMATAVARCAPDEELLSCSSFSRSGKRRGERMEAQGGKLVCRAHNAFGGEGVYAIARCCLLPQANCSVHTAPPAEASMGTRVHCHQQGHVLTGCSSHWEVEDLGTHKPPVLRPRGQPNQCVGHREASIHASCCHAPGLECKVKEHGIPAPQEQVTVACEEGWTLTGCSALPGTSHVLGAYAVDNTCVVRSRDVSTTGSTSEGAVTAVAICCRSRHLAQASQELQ
Sequence of PCSK9-V5 (Q8NBP7 31-152 partner limits assumed): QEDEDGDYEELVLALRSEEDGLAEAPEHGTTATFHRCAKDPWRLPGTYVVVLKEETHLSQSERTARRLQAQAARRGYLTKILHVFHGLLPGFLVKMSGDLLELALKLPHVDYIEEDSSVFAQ

For this assay, the target named is PCSK9-V5 (Homo sapiens, UniProt Q8NBP7). The experiment in a line: Far Western blot with PCSK9-V5 conditioned media. In kind it is binding. The arrangement: made in house; host or cells: CHO-K1 cells (conditioned medium, not purified). The settings on record: lysates of cells overexpressing the construct. Here is the method:
Lysates (20 to 30 μg protein), media or purified AnxA2-(His)6 were heated in reducing or non-reducing Laemmli sample buffer, resolved by SDS-PAGE on 8% glycine gels and electro-transferred onto nitrocellulose membranes (GE Healthcare). Following 1 h incubation in 5% skim milk in Tris-Buffered Saline-0.1% Tween (TBST), membranes where incubated with conditioned media of CHO-K1 cells overexpressing either an empty vector (pIRES-V5), PC5A-V5, CHRD-V5, pIRES-D374Y, PCSK9-V5 or its V5-tagged mutants, or incubated with purified AnxA2-(His)6 for 3 h at room temperature. […] For competition experiments, 10 μg of His-tagged PCSK9 or CHRD were added to the PCSK9-V5 media before Far Western blotting. For PCSK9 binding requirements with the ˜33 kDa protein, 1M NaCl, 10 mg/ml heparin, 1M NaCl+10 mg/ml heparin, or 100 mM EDTA were added to the PCSK9-V5 conditioned media used for Far Western blotting.
Wild type human Annexin A2 (AnxA2) (ATCC #MGC-2257) and Annexin A1 (AnxA1) (ATCC #MGC-5095) were purchased from ATCC and subcloned into NheI/SacI digested pIRES2-EGFP vector. An HA epitope ([…]) was fused by PCR mutagenesis at the C-terminus of both AnxA1 and AnxA2. Two-steps PCRs were performed on AnxA2 cDNA to introduce point mutations (N62Q; S64A; K28S+D34N+E36S; R37S+E43H+K47M; 77RRTKK (SEQ ID NO: 26)>AATAK (SEQ ID NO: 27); ^77RRTKK (SEQ ID NO: 26)>AATAA (SEQ ID NO: 28); ^77RRTKKELASALK (SEQ ID NO: 29)>^77AATAAELASALA (SEQ ID NO: 30); 80KKELA (SEQ ID NO: 31)>GKPLD (SEQ ID NO: 32)), or amino acid (aa) deletions (Δ2-24, aa 2-24; ΔR1, aa 37-108; ΔR2, aa 109-192; ΔR3, aa 193-268; ΔR4, aa 269-339; Δ25-36, aa 25-36; Δ37-48, aa 37-48; Δ49-61, aa 49-61; Δ62-75, aa 62-75; Δ37-66, aa 37-66; Δ74-88, aa 74-88; Δ82-88, aa 82-88; Δ89-101, aa 89-101; Δ102-108, aa 102-108) into pIRES2-AnxA2-EGFP vector (see Table 3 above). In addition, using PCR, the AnxA2 segment aa 49-75 was swapped with the corresponding AnxA1 segment aa 58-84 [AnxA1 (aa 58-84)>AnxA2 (aa 49-75)]. Similar swaps were performed for the corresponding AnxA2 sequence with AnxA1 (AnxA1>AnxA2: aa 25-27; aa 28-30; aa 31-33; aa 34-36; aa 37-39; aa 40-42; aa 43-45; aa 46-48; aa 49-75; aa 49-61; aa 62-75). All final cDNA constructs were verified by DNA sequencing.
On to B1, for which the “PCSK9-V5 binding by Far Western blot” value is “had no appreciable effect on PCSK9 binding”.

B2: the “PCSK9-V5 binding by Far Western blot” value is “slightly reduced the ability of PCSK9 to bind AnxA2”.

On to B3, for which the “PCSK9-V5 binding by Far Western blot” value is listed as “significant decrease of binding”. In the case of B4, the “PCSK9-V5 binding by Far Western blot” value was “is critical for the AnxA2-PCSK9 binding”. The same measure for B5: “is critical for the AnxA2-PCSK9 binding”; for B6: “abolished binding of AnxA2 to PCSK9”.

On to B7, for which the “PCSK9-V5 binding by Far Western blot” value is recorded as “abolished PCSK9 binding”.

With B8, the “PCSK9-V5 binding by Far Western blot” value is “abolished”. For the molecule B9, the “PCSK9-V5 binding by Far Western blot” value was “abolished PCSK9 binding”.
